From patent publication US20170306049A1 (YEDA RESEARCH AND DEVELOPMENT, published 2017)

Columns and labels:
[1] = molecular target: T1, HER3 fused with SNAP-Tag, expressed on HEK 293 cells and labelled with Lumi4-Tb (human, UniProt P21860 20-1342, SNAP-tag labelled with BG-Lumi4(Tb)); experiment: Tag-lite FRET KD of Table 2, compared with the other mAbs
T1 construct: whole, on cells; the parts follow the printed name HER3-SNAP-Tag; also called HER3-SNAP-Tag; HEK293-HER3-SNAP-Lumi4-Tb cells; not shown: SNAP-Tag (CISbio Tag-lite plasmid)
T1 sequence (P21860 20-1342): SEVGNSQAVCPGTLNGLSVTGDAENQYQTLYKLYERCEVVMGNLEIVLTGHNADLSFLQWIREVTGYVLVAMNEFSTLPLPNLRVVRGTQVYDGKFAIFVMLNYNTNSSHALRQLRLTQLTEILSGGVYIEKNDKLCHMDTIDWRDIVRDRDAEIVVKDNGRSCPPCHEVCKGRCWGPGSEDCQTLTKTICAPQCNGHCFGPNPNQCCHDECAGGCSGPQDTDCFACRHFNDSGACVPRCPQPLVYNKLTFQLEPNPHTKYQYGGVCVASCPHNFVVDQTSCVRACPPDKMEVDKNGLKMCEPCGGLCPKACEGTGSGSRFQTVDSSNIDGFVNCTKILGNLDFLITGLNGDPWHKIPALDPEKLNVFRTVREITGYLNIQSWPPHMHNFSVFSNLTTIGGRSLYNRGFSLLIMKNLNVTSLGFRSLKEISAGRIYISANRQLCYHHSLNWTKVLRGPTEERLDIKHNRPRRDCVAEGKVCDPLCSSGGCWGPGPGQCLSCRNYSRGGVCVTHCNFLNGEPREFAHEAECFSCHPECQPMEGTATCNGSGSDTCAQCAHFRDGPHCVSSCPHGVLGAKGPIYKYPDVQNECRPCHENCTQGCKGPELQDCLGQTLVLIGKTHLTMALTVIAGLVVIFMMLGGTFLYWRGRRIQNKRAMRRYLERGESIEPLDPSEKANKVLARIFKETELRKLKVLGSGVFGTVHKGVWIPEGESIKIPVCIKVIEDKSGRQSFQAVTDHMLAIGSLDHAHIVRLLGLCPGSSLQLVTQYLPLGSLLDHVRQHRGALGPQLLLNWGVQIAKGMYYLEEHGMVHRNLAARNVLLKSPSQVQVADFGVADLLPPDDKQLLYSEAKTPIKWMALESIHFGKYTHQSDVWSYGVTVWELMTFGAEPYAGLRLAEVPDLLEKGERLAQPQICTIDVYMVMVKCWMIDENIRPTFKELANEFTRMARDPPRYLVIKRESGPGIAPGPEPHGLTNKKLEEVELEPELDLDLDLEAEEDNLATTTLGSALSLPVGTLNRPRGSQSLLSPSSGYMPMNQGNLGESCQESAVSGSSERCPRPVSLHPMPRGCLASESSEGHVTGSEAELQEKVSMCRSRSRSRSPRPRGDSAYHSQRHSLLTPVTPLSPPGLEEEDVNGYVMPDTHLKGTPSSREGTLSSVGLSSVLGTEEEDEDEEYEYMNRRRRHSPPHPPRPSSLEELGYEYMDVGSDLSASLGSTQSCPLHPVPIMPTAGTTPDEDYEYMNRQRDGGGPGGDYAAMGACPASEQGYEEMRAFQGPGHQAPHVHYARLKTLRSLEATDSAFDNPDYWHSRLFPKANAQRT

[2] = molecular target: T1, HER3 fused with SNAP-Tag, expressed on …; experiment: Tag-lite FRET, d2-labelled mAb on HEK293 cells with Lumi4(Tb)-labelled HER3-SNAP-Tag
Experimental: FIGS. 3A-E show Kd determination of mAb to HER3 using the Tag-Lite technology. Cells are transfected with HER3-SNAP-Tag and labeled with BG-Lumi4(Tb), a SNAP-tag subtract. Following incubation with increasing concentrations of indicated d2 labeled mAb directed to HER3, the Kd was determined from the binding curve fitting. The binding curve was obtained by measuring the FRET between the donor Lumi4(Tb) and the acceptor d2-dye. The unspecific binding was evaluated by adding an excess of unlabelled Ab.
TABLE 2 Kd determination of indicated mAb to HER3 using the Tag- Lite technology. Cells were transfected with HER3-SNAP- Tag and labeled withBG-Lumi4(Tb), a SNAP-tag subtract. Following incubation with increasing concentrations of indicated d2 labeled mAb directed to HER3, the Kd was determined from the binding curve fitting. The binding curve was obtained by measuring the FRET between the donor Lumi4(Tb) and the acceptor d2-dye.

EGFR (ErbB1/HER1) = molecular target: T2, EGFR (ErbB1/HER1) (human, UniProt P00533 25-1210); experiment: flow cytometry on NIH/3T3 cells presenting EGFR alone
T2 construct: whole, on cells; also called NIH/3T3-EGFR cells; NIH/3T3-R1
Experimental: (§1) FIGS. 4A-B show specificity of monoclonal antibodies directed to HER3. (FIG. 4A) NIH/3T3-EGFR, -HER2, -HER3 or -EGFR/HER4 cells were incubated with 25 μg/ml of each mAb for 1.5 h at 4° C. After 2 washes, the cells were incubated for 1 h at 4° C. (in the dark) with a secondary anti-mouse IgG Ab coupled to AlexaFluor 488. The fluorescence intensity (F.I.) was measured on the LSRII flow cytometer. The negative control is made using an irrelevant mouse IgG as primary Ab. The positive control are the following mAb 565 (anti-EGFR), mAb L26 (anti-HER2), mAb 9F7 (anti-HER3), mAb 77 (anti-HER4). (FIG. 4B) The panel presents the geometric mean and the CV of the fluorescence intensity.

HER2 (ErbB2) = molecular target: T3, HER2 (ErbB2) (human, UniProt P04626 23-1255); experiment: flow cytometry on NIH/3T3 cells presenting HER2 alone
T3 construct: whole, on cells; also called NIH/3T3-HER2 cells; NIH/3T3-R2
Experimental: as §1

HER4 (ErbB4) = molecular target: T4, HER4 (ErbB4) (human, UniProt Q15303 26-1308); experiment: flow cytometry on NIH/3T3 cells presenting EGFR and HER4
T4 construct: whole, on cells; also called NIH/3T3-EGFR/HER4 cells; NIH/3T3-R1R4
T4 sequence (Q15303 26-1308): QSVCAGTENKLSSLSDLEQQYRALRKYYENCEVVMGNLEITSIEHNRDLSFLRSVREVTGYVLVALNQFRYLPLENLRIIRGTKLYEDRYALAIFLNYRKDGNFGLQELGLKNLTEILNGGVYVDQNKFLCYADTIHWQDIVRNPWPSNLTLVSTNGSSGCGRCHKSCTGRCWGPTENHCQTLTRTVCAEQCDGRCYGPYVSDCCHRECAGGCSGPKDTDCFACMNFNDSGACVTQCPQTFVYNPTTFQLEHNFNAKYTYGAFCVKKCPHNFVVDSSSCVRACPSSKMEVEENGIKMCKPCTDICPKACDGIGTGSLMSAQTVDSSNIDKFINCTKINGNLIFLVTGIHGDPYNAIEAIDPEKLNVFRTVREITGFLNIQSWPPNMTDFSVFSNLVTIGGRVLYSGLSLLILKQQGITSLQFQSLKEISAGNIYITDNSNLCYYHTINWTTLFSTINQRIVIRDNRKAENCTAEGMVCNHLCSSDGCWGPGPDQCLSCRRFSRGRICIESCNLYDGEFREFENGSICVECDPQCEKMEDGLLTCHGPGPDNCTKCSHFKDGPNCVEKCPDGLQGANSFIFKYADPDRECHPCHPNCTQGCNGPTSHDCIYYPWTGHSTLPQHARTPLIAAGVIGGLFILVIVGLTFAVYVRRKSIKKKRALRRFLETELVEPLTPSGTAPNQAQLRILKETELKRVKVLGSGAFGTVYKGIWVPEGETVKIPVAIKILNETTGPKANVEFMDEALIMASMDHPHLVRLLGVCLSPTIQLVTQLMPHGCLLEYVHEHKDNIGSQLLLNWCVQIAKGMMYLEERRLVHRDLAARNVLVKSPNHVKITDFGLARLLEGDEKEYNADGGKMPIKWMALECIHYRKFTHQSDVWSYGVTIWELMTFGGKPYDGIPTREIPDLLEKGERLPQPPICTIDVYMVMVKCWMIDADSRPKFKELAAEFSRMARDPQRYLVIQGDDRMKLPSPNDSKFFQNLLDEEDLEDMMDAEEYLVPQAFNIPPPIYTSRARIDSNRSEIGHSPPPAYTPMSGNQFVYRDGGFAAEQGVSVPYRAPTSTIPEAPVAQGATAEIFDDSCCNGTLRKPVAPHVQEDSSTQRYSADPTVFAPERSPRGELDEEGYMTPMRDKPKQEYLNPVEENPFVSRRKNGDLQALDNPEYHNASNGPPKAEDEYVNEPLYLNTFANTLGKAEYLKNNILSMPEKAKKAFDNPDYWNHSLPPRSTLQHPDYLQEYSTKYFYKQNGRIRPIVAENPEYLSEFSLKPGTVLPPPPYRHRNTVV
Experimental: as §1

[3] = molecular target: T5, IgB3 (recombinant HER3 extracellular domain fused to a human IgG Fc domain) (human, UniProt P21860 20-643); experiment: ELISA, IgB3-coated microplate, purified mAb, HRP anti-mouse IgG
T5 construct: extracellular domain; Secreted from HEK-293 cells, purified on protein G / protein A; not shown: Fc domain of a human IgG1
T5 sequence (P21860 20-643): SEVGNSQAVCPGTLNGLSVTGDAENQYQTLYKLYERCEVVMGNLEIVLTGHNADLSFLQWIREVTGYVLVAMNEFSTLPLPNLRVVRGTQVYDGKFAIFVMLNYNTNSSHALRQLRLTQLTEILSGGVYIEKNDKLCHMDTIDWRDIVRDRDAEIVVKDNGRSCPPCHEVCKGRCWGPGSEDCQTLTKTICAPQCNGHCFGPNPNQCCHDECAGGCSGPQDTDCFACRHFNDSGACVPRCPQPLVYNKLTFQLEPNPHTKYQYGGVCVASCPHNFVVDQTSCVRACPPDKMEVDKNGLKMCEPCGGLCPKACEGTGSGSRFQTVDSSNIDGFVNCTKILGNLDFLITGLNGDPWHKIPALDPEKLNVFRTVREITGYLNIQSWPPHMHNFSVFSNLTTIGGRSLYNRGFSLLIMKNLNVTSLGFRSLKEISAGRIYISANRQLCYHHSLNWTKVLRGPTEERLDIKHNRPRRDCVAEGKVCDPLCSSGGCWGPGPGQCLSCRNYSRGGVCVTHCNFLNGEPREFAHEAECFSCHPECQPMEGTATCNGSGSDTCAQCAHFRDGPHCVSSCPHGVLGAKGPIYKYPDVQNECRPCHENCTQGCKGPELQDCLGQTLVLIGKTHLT
Experimental: FIGS. 2A-D show monoclonal antibody targeting HER3 extracellular domain. (FIG. 2A) 96 well-plates were coated with 1.5 μg/ml of IgB3, blocked with PBS-BSA (1% weight/vol) and incubated for 1 h with various concentrations of purified mAbs under gentle shaking at RT. After washing, a second 1 h-incubation with HRP-labelled anti-mouse IgG was performed and followed by incubation with 2,2′-azino-bis (3-ethylbenzothiazoline-6-sulfonic acid) for 10 min. The OD at 415 nm was measured using by an ELISA microplate reader. […] After 2 washes, the cells were incubated for 1 h at 4° C. (in the dark) with a secondary anti-mouse IgG Ab coupled to AlexaFluor 488. The fluorescence intensity (F.I.) was measured on the LSRII flow cytometer. […] After 4 washes, the content bound to the beads was eluted and analyzed by immunoblotting (IB) with an antibody to HER3/ErbB-3.
The comparison of the capacity of purified mAbs to bind with IgB3 was evaluated using ELISA (FIG. 2A). […] Each antibody was labeled with the d2-dye, and by measuring the binding of the labeled-mAb to cells presenting Lumi4(Tb)-labeled HER3 using FRET, the KD was determined and reported in Table 2, below. The values obtained correlate with the different patterns of HER3 binding determined by FACS (FIGS. 2B and 2C), although they are distinct from the patterns of IgB3 binding determined using ELISA (FIG. 2A).

| Binder | fold weaker affinity than the other mAbs [1] | Kd [2] | binding result (EGFR (ErbB1/HER1)) | binding result (HER2 (ErbB2)) | binding result (HER4 (ErbB4)) | EC50 [3] |
| --- | --- | --- | --- | --- | --- | --- |
| anti-HER3 mAb NG83 (antibody, V domains shown) VH: QIQLVQSGPELKKRGETVKISCKASGYTFTNYGMNWVRQAPGKGLKCMGWINTYAGEPTYADDFKGRFAFSLDSSASTAYLQINNLKNEDMATYFCARGGITGAMDYWGQGTSVTVSS VL: DVVMTQKTSSLSTSLGDRVTISCRASQDIRNYLNWYQQKPDGTVKLLIYYTSRLHSGVPSRFSGSGSGTDYSLTISDLEQEDIATYFCQQGNTLPWTFGGGTKLAIK | 10 fold | > 14 nM | – | – | – | – |
| mAb XC252 (antibody, V domains shown, also called XC252-K2 (Lumi4 Tb cryptate labelled)) VH: EVQLQQSGAELVRPGVSVKISCKGSGYTFTDYAMHWVKQSHAKSLEWIGVISTYYGDPRDNQKFKGKATMTVDKSSSTAYMELARLTSEDSAIYYCARGDYDWYAIDYWGQGTSVTVSS VL: DVVMTQTPLSLPVSLGDQASISCRSSQSIVHSDGNTYLEWYLQKPGQSPKLLIYKVSNRFSGVPDRFSGSGSGTDFTLKISRVEAEDLGVYYCFQGSHVPPTFGGGTKLEIK | – | 1.09 nM | no binding (tested: 25 µg/ml) | no binding (tested: 25 µg/ml) | no binding (tested: 25 µg/ml) | 0.21 nM |
| anti-HER3 mAb NG33 (antibody, V domains shown) VH: DVQLQESGPGLVKPSQSLSLTCSVTGYSITSGFYWSWIRQFPGNKLEWMGYIAYDGTSNYNPSLKNRISITRDTSKNQFFLKLKSVTNEDTPTYYCARGGGYYGQLLDYWGQGTSVTVSS VL: DARMTQSPSSLSASLGDRVTISCRASQDISNYLNWYQQKPDGTVKVLIYNTAKLHSGVPSRFSGSGSGTDYSLTISNLEQEDFATYFCQQGKTLPWTFGGGTKLELK | – | 2.96 nM | – | – | – | – |
| anti-HER3 mAb NG140 (antibody, V domains shown) VH: QVQLKESGPGLVKPSQSLSLTCSVTGYSITSGYYWNWIRQFPGNKLEWMGSIYYDGSNNYNPSLKNRISVTRDTSKNQFFLKLNSVTTEDTATYYCARDYDVGYAMDYWGQGASVTVSS VL: DIVLTQSSSYLSVSLGGRVTITCKASDHINNWLAWYQQKPGNAPRLLISGATSLETGVPSRFSGSGSGKDYTLSITSLQTEDVATYYCQQYWSIPWTFGGGTKLEIK | – | 6.12 nM | – | – | – | 16.8 nM |
